From patent US20260242478A1 (published 2026)
Where no end group is shown, it is not given here.

B1: Phage-2757 (peptide)
peptide: GEIRCSPAWMCDGF
notes: Clone of the Peptide-180 optimisation library, tested as clonal phage supernatant (peptide fused to pIII of the bacteriophage)
B2: Phage-2759 (peptide)
peptide: MQKMCIPTWMCDGL
notes: as for B1
B3: Phage-2762 (peptide)
peptide: WINWCTPQWMCADL
modifications: cysteine pairing not given here; also: fused to pIII, displayed on bacteriophage
notes: as for B1
B4: Phage-2758 (peptide)
peptide: MVHWCTPSWMCSAL
notes: Clone of the Peptide-180 optimisation library, tested as clonal phage supernatant (peptide fused to pIII of the bacteriophage); Row read against Peptide-180: MVHWCTPSWMCSAL
B5: Phage-2756 (peptide)
peptide: AHNWCTPAWMCMWD
modifications: cysteine pairing not given here; also: fused to pIII, displayed on bacteriophage
notes: as for B1
B6: Phage-2761 (peptide)
peptide: PWKWCTPVWMCQGV
notes: as for B1
B7: Phage-2763 (peptide)
peptide: FEKWCTPTWMCWPY
notes: as for B1
B8: Phage-2760 (peptide)
peptide: PVKMCTPAWMCSER
notes: as for B1
B9: Phage-2712 (peptide)
peptide: WENWCRPSWMCEDT
modifications: cysteine pairing not given here; also: displayed on bacteriophage as fusion to pIII, linker not given here
B10: Phage-2714 (peptide)
peptide: HEKWCVPSWMCDDW
modifications: cysteine pairing not given here; also: displayed on bacteriophage as fusion to pIII, linker not given here
B11: Phage-2719 (peptide)
peptide: DMHWCTPQWMCAPL
modifications: cysteine pairing not given here; also: displayed on bacteriophage as fusion to pIII, linker not given here
B12: Phage-2713 (peptide)
peptide: NTHWCTPSWMCSAW
modifications: cysteine pairing not given here; also: displayed on bacteriophage as fusion to pIII, linker not given here
B13: Phage-2722 (peptide)
peptide: DQKWCIPLWMCETR
B14: Phage-2716 (peptide)
peptide: VANWCTPKWMCEHV
modifications: cysteine pairing not given here; also: displayed on bacteriophage as fusion to pIII, linker not given here
B15: Phage-2720 (peptide)
peptide: DWKWCTPSWMCAQK
modifications: cysteine pairing not given here; also: displayed on bacteriophage as fusion to pIII, linker not given here
B16: Phage-2717 (peptide)
peptide: EYTWCKPAWMCDGV
modifications: cysteine pairing not given here; also: displayed on bacteriophage as fusion to pIII, linker not given here
B17: Phage-2723 (peptide)
peptide: DYKWCTPMWMCEVV
B18: Phage-2711 (peptide)
peptide: NVSMCIPNWMCVGL
modifications: cysteine pairing not given here; also: displayed on bacteriophage as fusion to pIII, linker not given here
B19: Phage-2718 (peptide)
peptide: TQKWCIPAWMCAER
modifications: cysteine pairing not given here; also: displayed on bacteriophage as fusion to pIII, linker not given here
B20: Phage-2721 (peptide)
peptide: NVKWCVPHWMCEVS
B21: Phage-2715 (peptide)
peptide: VYKWCTPSWMCADP
modifications: cysteine pairing not given here; also: displayed on bacteriophage as fusion to pIII, linker not given here
B22: Phage-2724 (peptide)
peptide: EWKWCTPPWMCTTN
B23: Phage-2728 (Peptide-180 library clone) (peptide)
peptide: VNPSCTPSWMCLGL
B24: Phage-2733 (Peptide-180 library clone) (peptide)
peptide: DIKWCTPSWMCPAK
B25: Phage-2735 (Peptide-180 library clone) (peptide)
peptide: HGKLCTPSWMCNGF
B26: Phage-2730 (Peptide-180 library clone) (peptide)
peptide: EMKWCKPEWMCPWM
B27: Phage-2732 (Peptide-180 library clone) (peptide)
peptide: WEKWCTPPWMCHDM
B28: Phage-2736 (Peptide-180 library clone) (peptide)
peptide: IVKWCTPAWMCDQQ
B29: Phage-2731 (Peptide-180 library clone) (peptide)
peptide: VSNWCKPAWMCGTT
B30: Phage-2737 (Peptide-180 library clone) (peptide)
peptide: TNNWCIPSWMCDIR
B31: Phage-2738 (Peptide-180 library clone) (peptide)
peptide: WEKLCRPAWMCAAY
modifications: cysteine pairing not given here; also: fused to pIII, displayed on bacteriophage
B32: Phage-2734 (Peptide-180 library clone) (peptide)
peptide: QMPLCIPQWMCTNN
B33: Phage-2729 (Peptide-180 library clone) (peptide)
peptide: LYNRCTPAWMCTGF
B34: Phage-2739 (Peptide-180 library clone) (peptide)
peptide: FENWCTPYWMCSGM
B35: Phage-2726 (Peptide-180 library clone) (peptide)
peptide: INKWCTPAWMCDLS
B36: Phage-2725 (Peptide-180 library clone) (peptide)
peptide: MEKMCTPQWMCDMW
B37: Phage-2727 (Peptide-180 library clone) (peptide)
peptide: WQKWCTPMWMCEAT

What follows are binders tested against T1, 006 PSMA Fab (biotinylated (site not stated)) (assay: clonal phage ELISA on biotinylated PSMA Fab captured on neutravidin plates, anti-M13-HRP detection;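 also: crude clonal phage supernatants added to wells preincubated with PSMA antigen or with blocking buffer only (no wash between), briefly incubated, then washed before detecting bound phage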).
T1 construct: Biotinylated PSMA Fab captured on neutravidin coated plates in the panning ELISA; also called Anti-PSMA Fab

In order of falling “phage binding ELISA signal” value:
1. B1  0.682
2. B5  0.682
3. B4  0.677
4. B2  0.673
5. B8  0.67
6. B6  0.669
7. B3  0.662
8. B7  0.661

The binders below were run against T2, PSMA Fab (006 PSMA Fab) (assay: clonal phage ELISA; biotinylated PSMA Fab on neutravidin plate, blocking buffer alone, anti-M13-HRP detection;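 also: crude clonal phage supernatants added without washing to wells preincubated with PSMA antigen or with blocking buffer alone, briefly incubated, then washed before bound phage detection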).
T2 construct: also called Anti-PSMA Fab; anti-PSMA Fab
Procedure: (§1) Clonal phage were harvested as crude supernatants and screened via standard ELISAs. […] Prior to the addition of clonal phage. wells were incubated with blocking buffer and PSMA antigen or blocking buffer alone. Without washing or aspirating, clonal phage supernatants were then added to the wells and incubated for a short time. Wells were then washed followed by detection of bound phage using a horse radish conjugated anti-M13 antibody.

In order of rising “Phage binding ELISA signal, Anti-PSMA Fab” value:
1. B22  0.752
2. B17  0.753
3. B13  0.762
4. B20  0.765
5. B15  0.769
6. B11  0.771
7. B16  0.774
8. B19  0.774
9. B14  0.777
10. B21  0.779
11. B10  0.784
12. B12  0.789
13. B9  0.79
14. B18  0.791

What follows are binders tested against PSMA Fab (anti-PSMA Fab; 006 PSMA Fab) (assay: phage binding ELISA; clonal phage supernatant on biotinylated PSMA Fab captured on neutravidin plate; anti-M13 HRP detection).
Procedure: as §1

In order of falling “Phage binding ELISA signal, Anti-PSMA Fab” value:
1. B36  0.749
2. B35  0.747
3. B37  0.744
4. B23  0.739
5. B33  0.738
6. B26  0.733
7. B27  0.733
8. B29  0.733
9. B24  0.729
10. B32  0.723
11. B25  0.721
12. B28  0.72
13. B30  0.718
14. B31  0.715
15. B34  0.712

Each binder was assayed against T1, 006 PSMA Fab (assay: clonal phage ELISA on captured PSMA Fab, wells pre-incubated with PSMA antigen as competitor).
Procedure: as §1

In order of rising “phage binding ELISA signal in presence of PSMA antigen” value:
1. B5  0.0753
2. B2  0.0817
3. B7  0.0829
4. B8  0.0866
5. B6  0.0937
6. B4  0.1
7. B1  0.104
8. B3  0.13

The binders below were run against T2, PSMA Fab (006 PSMA Fab) (assay: clonal phage ELISA; biotinylated PSMA Fab on neutravidin plate, wells pre-incubated with PSMA antigen (competitor), anti-M13-HRP detection).
Procedure: as §1

In order of rising “Phage binding ELISA signal, Anti-PSMA Fab in presence of PSMA antigen” value:
1. B9  0.0568
2. B14  0.0631
3. B15  0.0639
4. B20  0.0649
5. B10  0.0669
6. B21  0.0676
7. B19  0.0702
8. B13  0.0727
9. B16  0.0742
10. B17  0.0761
11. B12  0.0816
12. B22  0.0835
13. B11  0.0856
14. B18  0.0891

The binders below were run against PSMA Fab (anti-PSMA Fab; 006 PSMA Fab) (assay: phage binding ELISA on captured PSMA Fab; wells first incubated with PSMA antigen as competitor; anti-M13 HRP detection).
Procedure: as §1

In order of falling “Phage binding ELISA signal, Anti-PSMA Fab with PSMA antigen” value:
1. B35  0.0937
2. B34  0.0884
3. B24  0.0862
4. B28  0.0809
5. B23  0.0793
6. B29  0.079
7. B37  0.0785
8. B31  0.0754
9. B36  0.0732
10. B26  0.0688
11. B27  0.0669
12. B33  0.0657
13. B30  0.0629
14. B25  0.0619
15. B32  0.0562
